What was measured:
human SIRPA ECD = target: T1, human SIRPA ECD (human, UniProt P78324 31-373); assay: direct ELISA on coated recombinant ECD (30 ng/well), HRP-conjugated secondary antibody, luminescence
T1 construct: extracellular domain; also called recombinant extracellular domain of SIRPA
Method: (§1) Briefly, recombinant extracellular domain of PDGFRb, FAPα, ULBP1, uPAR, IGF1R, SIRPA, PD-L1, ANTXR1, CD248, or GPC3 (30 ng/well) was coated on white optiplate™-384 well HB plate. After overnight coating, standard direct ELISA assay was performed. Luminescence signal was detected after using secondary antibody with HRP conjugated. Binding activity of each antibody was determined based on dose dependent binding curve.

[1] = target: T2, IGF-1R on TGFb1-activated primary human HSC cells (human, UniProt P08069 31-1367); assay: flow cytometry on TGFb1-activated primary human HSC cells, 10 ug/ml antibody, fluorophore-conjugated secondary antibody
T2 construct: whole, on cells
Method: Relative expression levels of the antigens on activated HSC were assayed using FACS. Human primary hepatic stellate cells (ScienCell, 5301) were cultured in culture medium (ScienCell, 5300). The cells were activated using 2 ng/ml human TGFb1 (Sinobiological, 10804-HNAC) for 24 hours. These cells were then collected for FACS assay. Briefly, the cells were incubated with 10 μg/ml primary antibody in blocking buffer (10% FBS in PBS) at 4 °C for 1 hour. After two rounds of PBS washes, the cells were stained with secondary antibody conjugated with a fluorophore. The mean fluorescence intensity was measured using FACS. Among the antigens tested, fibroblast activation protein alpha (FAPα) was expressed at relatively high levels, while uPAR, IGF-1R, GPC3, CD248 and NKG2D ligands were expressed at relatively low levels on TGFb1-activated HSC cells.

human PD-L1 ECD = target: T3, human PD-L1 ECD (human, UniProt Q9NZQ7 19-238); assay: direct ELISA on coated recombinant ECD (30 ng/well), HRP-conjugated secondary antibody, luminescence
T3 construct: extracellular domain; also called recombinant extracellular domain of PD-L1
Method: as §1

human CD248 ECD = target: T4, human CD248 ECD (human, UniProt Q9HCU0 18-687); assay: as above
T4 construct: extracellular domain; also called recombinant extracellular domain of CD248
T4 sequence (looked up): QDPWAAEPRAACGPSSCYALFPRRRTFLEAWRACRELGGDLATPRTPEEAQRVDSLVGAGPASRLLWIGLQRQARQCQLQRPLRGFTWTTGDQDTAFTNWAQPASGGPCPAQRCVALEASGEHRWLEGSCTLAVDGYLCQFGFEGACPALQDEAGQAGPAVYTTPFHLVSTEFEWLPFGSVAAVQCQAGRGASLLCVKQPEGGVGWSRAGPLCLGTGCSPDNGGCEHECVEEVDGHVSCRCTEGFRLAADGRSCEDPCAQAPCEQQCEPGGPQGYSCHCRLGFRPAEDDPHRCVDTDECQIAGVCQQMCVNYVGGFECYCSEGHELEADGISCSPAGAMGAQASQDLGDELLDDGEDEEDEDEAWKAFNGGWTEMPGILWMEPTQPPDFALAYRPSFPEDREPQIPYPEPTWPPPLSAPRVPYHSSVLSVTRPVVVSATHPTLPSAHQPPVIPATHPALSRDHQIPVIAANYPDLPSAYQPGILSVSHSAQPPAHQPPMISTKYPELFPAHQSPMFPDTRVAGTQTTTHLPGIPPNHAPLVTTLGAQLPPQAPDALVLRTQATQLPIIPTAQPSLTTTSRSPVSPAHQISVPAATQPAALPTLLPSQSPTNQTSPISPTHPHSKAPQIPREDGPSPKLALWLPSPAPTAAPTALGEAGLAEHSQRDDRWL
Method: as §1

human ANTXR1 ECD = target: T5, human ANTXR1 ECD (human, UniProt Q9H6X2 33-321); assay: as above
T5 construct: extracellular domain; also called recombinant extracellular domain of ANTXR1
T5 sequence (looked up): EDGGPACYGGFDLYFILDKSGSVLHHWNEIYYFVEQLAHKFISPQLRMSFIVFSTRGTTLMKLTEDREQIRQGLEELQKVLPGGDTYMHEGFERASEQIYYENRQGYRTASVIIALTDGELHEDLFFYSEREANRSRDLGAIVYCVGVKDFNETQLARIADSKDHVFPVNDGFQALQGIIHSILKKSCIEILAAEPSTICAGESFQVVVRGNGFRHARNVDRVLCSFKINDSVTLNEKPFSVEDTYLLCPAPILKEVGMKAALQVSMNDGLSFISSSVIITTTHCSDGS
Method: as §1

T1 sequence (P78324 31-373): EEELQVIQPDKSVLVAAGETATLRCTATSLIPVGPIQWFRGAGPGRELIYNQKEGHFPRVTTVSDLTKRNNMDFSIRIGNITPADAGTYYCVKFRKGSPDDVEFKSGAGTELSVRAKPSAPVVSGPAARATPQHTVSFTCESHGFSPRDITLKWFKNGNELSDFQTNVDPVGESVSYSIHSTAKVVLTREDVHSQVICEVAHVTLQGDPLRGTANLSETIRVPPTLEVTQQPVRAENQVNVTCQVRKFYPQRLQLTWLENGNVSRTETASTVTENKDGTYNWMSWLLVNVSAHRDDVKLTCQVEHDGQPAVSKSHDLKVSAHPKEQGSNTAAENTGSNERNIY
T2 sequence (P08069 31-1367): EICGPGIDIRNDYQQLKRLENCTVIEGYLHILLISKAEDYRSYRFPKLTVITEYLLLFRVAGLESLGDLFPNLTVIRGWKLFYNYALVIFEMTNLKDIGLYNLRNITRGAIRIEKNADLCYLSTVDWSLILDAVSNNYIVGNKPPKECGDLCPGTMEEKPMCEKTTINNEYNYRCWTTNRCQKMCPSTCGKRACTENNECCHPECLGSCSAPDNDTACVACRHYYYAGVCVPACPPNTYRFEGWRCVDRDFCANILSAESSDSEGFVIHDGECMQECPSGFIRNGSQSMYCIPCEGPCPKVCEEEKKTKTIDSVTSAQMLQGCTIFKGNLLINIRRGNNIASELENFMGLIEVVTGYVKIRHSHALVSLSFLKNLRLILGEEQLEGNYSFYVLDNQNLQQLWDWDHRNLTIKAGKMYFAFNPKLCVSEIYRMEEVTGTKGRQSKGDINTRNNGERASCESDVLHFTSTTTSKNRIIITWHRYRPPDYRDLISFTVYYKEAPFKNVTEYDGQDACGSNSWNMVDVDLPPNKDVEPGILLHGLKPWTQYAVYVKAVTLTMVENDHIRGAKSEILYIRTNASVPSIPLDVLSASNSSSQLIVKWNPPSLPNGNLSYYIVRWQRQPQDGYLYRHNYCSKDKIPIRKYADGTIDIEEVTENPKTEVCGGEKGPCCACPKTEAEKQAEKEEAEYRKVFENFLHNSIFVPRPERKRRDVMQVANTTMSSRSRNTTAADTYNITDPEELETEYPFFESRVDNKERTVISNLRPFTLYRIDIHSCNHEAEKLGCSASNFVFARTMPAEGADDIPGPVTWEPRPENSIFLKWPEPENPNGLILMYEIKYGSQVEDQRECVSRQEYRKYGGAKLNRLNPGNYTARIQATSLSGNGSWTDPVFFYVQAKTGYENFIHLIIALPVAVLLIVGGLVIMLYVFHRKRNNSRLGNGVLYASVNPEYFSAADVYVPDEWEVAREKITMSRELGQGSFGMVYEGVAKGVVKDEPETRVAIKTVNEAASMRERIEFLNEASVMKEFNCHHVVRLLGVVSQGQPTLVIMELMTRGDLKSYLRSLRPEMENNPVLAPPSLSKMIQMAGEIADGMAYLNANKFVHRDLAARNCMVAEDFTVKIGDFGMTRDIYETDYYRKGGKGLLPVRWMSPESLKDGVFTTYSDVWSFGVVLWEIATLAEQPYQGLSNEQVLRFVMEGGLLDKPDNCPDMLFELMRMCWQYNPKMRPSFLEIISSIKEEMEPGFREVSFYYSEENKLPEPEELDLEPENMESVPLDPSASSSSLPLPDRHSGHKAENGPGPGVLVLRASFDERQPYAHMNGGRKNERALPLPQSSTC
T3 sequence (Q9NZQ7 19-238): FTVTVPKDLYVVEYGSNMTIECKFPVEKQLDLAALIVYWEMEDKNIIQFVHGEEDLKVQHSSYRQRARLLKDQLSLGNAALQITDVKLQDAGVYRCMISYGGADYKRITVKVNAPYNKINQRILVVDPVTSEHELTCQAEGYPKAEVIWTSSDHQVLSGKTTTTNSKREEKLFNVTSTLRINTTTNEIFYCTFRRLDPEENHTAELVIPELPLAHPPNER

B1: α-SIRPA 2 S239D/1332E (antibody, human IgG1, kappa, V domains shown)
VH: EVQLQQSGAELVKPGASVKVSCTGSGFNFKDMYLHWVKQRPEQGLEWIGRIDPENDSTKYDPKFQDKATLTADTASNTAYLQISSLTSEDTAVYYCARGNYVHWGQGTLVTVSA
VL: DIVLTQSPASLAVSLGQRATISCRASESVQYYGTSLMQWYQQKPGQPPKLLIYAASNVGSGVPARFSGSGSGTDFSLNIHPVEEDDIAMYFCQQTRRVWTFGGGTKLEIKR
notes: Chimeric: murine variable regions, hIgG1 constant region with S239D/I332E; also called α-SIRPA 2 S239D/I332E; exemplary anti-SIRPA antibody (α-SIRPA 2)
- EC50 (read off the curve) (human SIRPA ECD): ~0.3 nM

B2: α-IGF1R 1 S239D/1332E (antibody, human IgG1, kappa, V domains shown)
VH: EVQLLESGGGLVQPGGSLRLSCAASGFTFSIYRMQWVRQAPGKGLEWVSGISPSGGTTWYADSVKGRFTISRDNSKNTLYLQMNSLRAEDTAVYYCARWSGGSGYAFDIWGQGTMVTVSS
VL: DIQMTQSPLSLSASVGDRVTITCQASRDIRNYLNWYQQKPGKAPKLLIYDASSLQTGVPSRFGGSGSGTDFSFTIGSLQPEDIATYYCQQFDSLPHTFGQGTKLEIKR
notes: hIgG1 with S239D/I332E; also called α-IGF1R 1 S239D/I332E; exemplary anti-IGF1R antibody (α-IGF1R 1)
- binding result [1]: binds

B3: α-PDL1 1 S239D/1332E (antibody, human IgG1, kappa, V domains shown)
VH: EVQLVQSGAEVKKPGATVKISCKVSGYTFTSYWMYWVRQARGQRLEWIGRIDPNSGSTKYNEKFKNRFTISRDNSKNTLYLQMNSLRAEDTAVYYCARDYRKGLYAMDYWGQGTTVTVSS
VL: AIQLTQSPSSLSASVGDRVTITCKASQDVGTAVAWYLQKPGQSPQLLIYWASTRHTGVPSRFSGSGSGTDFTFTISSLEAEDAATYYCQQYNSYPLTFGQGTKVEIKR
notes: Humanized, hIgG1 isotype, with S239D/I332E; also called α-PDL1 1 S239D/I332E; exemplary anti-PDL1 antibody (α-PDL1 1)
- EC50 (read off the curve) (human PD-L1 ECD): ~0.02 µg/mL

B4: α-SIRPA 3 S239D/1332E (antibody, human IgG1, kappa, V domains shown)
VH: EVQLQQSGAELVKPGASVKLSCTASGFNIKDSYMHWVKQRTEQGLEWIGRIDPEDGETKYAPKFQGKATITADTSSNTAYLQLTSLTSEDTAVYYCARRGFYWGQGTTLTVSS
VL: QIVLTQSPAIMSASPGEKVTLTCSASSSVSSSYLYWYQQKPGSSPKLWIYSTSNLASGVPARFSGSGSGTSYSLTISSMEAEDAASYFCYQWSTHPYTFGGGTKLEIKR
notes: Chimeric: murine variable regions, hIgG1 constant region with S239D/I332E; also called α-SIRPA 3 S239D/I332E; exemplary anti-SIRPA antibody (α-SIRPA 3)
- EC50 (read off the curve) (human SIRPA ECD): ~0.3 nM

B5: α-CD248 1 mIgG2a S239D/1332E (antibody, V domains shown)
VH: QVQLQESGPGLVAPSQSLSITCTVSGFSLTGYGVNWVRQPPEKGLEWLGMIWVDGSTDYNSALKSRLNISKDKSKSQVFLKMNSLQTDDTARYYCARGGYGAMDYWGQGTSVTVSS
VL: DIQMNQSPSSLSASLGDTITITCHASQNINVWLTWYQQKPGNIPKLLIYKASNLHTGVPSRFSGSGSGTGFTLTISSLQPEDIATYYCQQGQSYPWTFGGGTKLEIKR
notes: mIgG2a with S239D/I332E; also called α-CD248 1 mIgG2a S239D/I332E; exemplary anti-CD248 antibody (α-CD248 1)
- EC50 (read off the curve) (human CD248 ECD): ~0.04 µg/mL

B6: α-ANTXR1 2 mIgG2a S239D/1332E (antibody, V domains shown)
VH: QVQLKESPGALVKPTQTLTLTCTFSGFSLSTSGGGVSWIRQPPGKALEWLAHIYSNDDKSYSTSLKTRLTISKDTSKNQVVLTMTNMDPVDTATYYCARGGYFLDYWGQGTLVTVSS
VL: DIELTQPPSVSVAPGQTARISCSGDNIGGIYVHWYQQKPGQAPVLVIYADSKRPSGIPERFSGSNSGNTATLTISGTQAEDEADYYCQSYDITSLVFGGGTKLTVLG
notes: mIgG2a with S239D/I332E; also called α-ANTXR1 2 mIgG2a S239D/I332E; exemplary anti-ANTXR1 antibody (α-ANTXR1 2)
- EC50 (read off the curve) (human ANTXR1 ECD): ~0.02 µg/mL
